Reference: paper PMC5915741, “A Viral Suppressor Modulates the Plant Immune Response Early in Infection by Regulating MicroRNA Activity” (mBio, 2018)

Columns and labels:
[1] = molecular target: T1, p19 (Carnation Italian ringspot virus (CIRV), UniProt Q66104 1-172); experiment: EMSA; conditions: protein: recombinant, tags: GST (pGEX-6P-1) removed by PreScission protease, chain copies: 2
T1 sequence: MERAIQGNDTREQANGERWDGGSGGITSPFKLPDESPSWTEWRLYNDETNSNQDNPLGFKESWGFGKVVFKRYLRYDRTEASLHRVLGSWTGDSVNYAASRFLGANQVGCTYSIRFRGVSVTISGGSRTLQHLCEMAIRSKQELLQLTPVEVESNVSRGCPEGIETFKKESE

[2] = molecular target: T2, 2b (Tomato aspermy virus (TAV), UniProt Q8UYT3 1-95); experiment: competition EMSA; KC vs labeled gf698 siRNA, 1.9 nM 2b monomer; conditions: protein: recombinant, tags: His-SUMO removed by SUMO protease, chain copies: 2
T2 sequence: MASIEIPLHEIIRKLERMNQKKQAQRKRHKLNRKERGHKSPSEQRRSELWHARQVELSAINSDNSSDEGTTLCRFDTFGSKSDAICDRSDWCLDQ

[3] = molecular target: T2, 2b; experiment: EMSA; conditions: protein: recombinant, tags: His-SUMO removed by SUMO protease, chain copies: 2
[4] = molecular target: T1, p19; experiment: competition EMSA; KC vs labeled gf698 siRNA, 0.5 nM p19 dimer; conditions: protein: recombinant, tags: GST (pGEX-6P-1) removed by PreScission protease, chain copies: 2
[5] = molecular target: the molecule itself; experiment: AUC; sedimentation equilibrium (18,000 rpm) and velocity (40,000 rpm), 20°C, CIRV p19 at 1.2 to 13 µM in buffer D; no RNA
[6] = label: 5'-32P, miRNA duplex with mismatches, 3' overhangs
[7] = miRNA duplex with mismatches, 3' overhangs
[8] = miRNA duplex with mismatches, 22 nt star strand

B1: NbmiR168a,b,c (dsRNA)
RNA 1: UCGCUUGGUGCAGGUCGGGAC
RNA 2: CCCGCCUUGCAUCAACUGAAU
modifications: 5' phosphate on both strands
[1]; [6]
  Kd: 6.57 ± 1.5 nM

B2: AtmiR162 (= NbmiR162b per Table 1) (dsRNA)
RNA 1: UCGAUAAACCUCUGCAUCCAG
RNA 2: GGAGGCAGCGGUUCAUCGAUC
modifications: 5' phosphate on both strands
[2]; [7]
  Ki: 0.67 ± 0.09 nM
[1]; [7]
  Kd: 0.07 ± 0.03 nM
[3]; [7]
  Kd: 0.46 ± 0.06 nM
[4]; [7]
  Ki: 0.12 ± 0.05 nM

B3: AtmiR403 (dsRNA)
RNA 1: UUAGAUUCACGCACAAACUCG
RNA 2: UGUUUUGUGCUUGAAUCUAAUU
modifications: 5' phosphate on both strands
[2]; [8]
  Ki: 0.05 ± 0.004 nM
[1]; [8]
  Kd: 1.37 ± 0.29 nM
[3]; [8]
  Kd: 0.26 ± 0.03 nM
[4]; [8]
  Ki: 1.09 ± 0.43 nM

B4: NbmiR162a (Table 1 name) (dsRNA)
RNA 1: UCGAUAAACCUCUGCAUCCAG
RNA 2: GGAGGCAGCGGUUUAUCGAUC
modifications: 5' phosphate on both strands
[1]; [6]
  Kd: 0.14 ± 0.05 nM

B5: gf698 siRNA (dsRNA)
RNA 1: UAGUUCAUCCAUGCCAUGUGU
RNA 2: ACAUGGCAUGGAUGAACUAUA
modifications: 5' phosphate on both strands
[2]; 2 nt 3' overhangs
  Ki: 0.53 ± 0.08 nM
[1]; 2 nt 3' overhangs
  Kd: 0.06 ± 0.04 nM
[3]; 2 nt 3' overhangs
  Kd: 0.68 ± 0.15 nM
[4]; 2 nt 3' overhangs
  Ki: 0.07 ± 0.03 nM

B6: NbmiR403a (dsRNA)
RNA 1: UUAGAUUCACGCACAAACUCG
RNA 2: UGUUUGUGCGUGAAUCUGACA
modifications: 5' phosphate on both strands
[2]; [7]
  Ki: 0.01 ± 0.006 nM
[1]; [7]
  Kd: 0.11 ± 0.02 nM
[3]; [7]
  Kd: 0.22 ± 0.03 nM

B7: AtmiR168b (dsRNA)
RNA 1: UCGCUUGGUGCAGGUCGGGAA
RNA 2: CCCGUCUUGUAUCAACUGAAU
modifications: 5' phosphate on both strands
[1]; [6]
  Kd: 4.83 ± 1.57 nM

B8: AtmiR168a (= NbmiR168d,e) (dsRNA)
RNA 1: UCGCUUGGUGCAGGUCGGGAA
RNA 2: CCCGCCUUGCAUCAACUGAAU
modifications: 5' phosphate on both strands
[2]; [7]
  Ki: 12.1 ± 0.7 nM
[1]; [7]
  Kd: 2.29 ± 0.78 nM
[3]; [7]
  Kd: 1.24 ± 0.15 nM
[4]; [7]
  Ki: 1.59 ± 0.35 nM

B9: NbmiR403b (dsRNA)
RNA 1: UUAGAUUCACGCACAAACUCG
RNA 2: UGUUUGUGCGUGAUUCUGACA
modifications: 5' phosphate on both strands
[2]; [7]
  Ki: 0.02 ± 0.003 nM
[1]; [7]
  Kd: 0.37 ± 0.06 nM
[3]; [7]
  Kd: 0.26 ± 0.03 nM

B10: Carnation Italian ringspot virus (CIRV) p19 protein (natural protein)
chain: T1 sequence
notes: p19 viral suppressor of RNA silencing of Carnation Italian ringspot virus (CIRV); the p19 open reading frame cloned into pGEX-6P-1; theoretical mass of the monomer 19.479 kDa; GST removed with PreScission protease; also called Tombusvirus p19; source: E. coli BL21(DE3) RIPL, purified (GSTrap, PreScission cleavage, Resource Q anion exchange)
[5]
  stoichiometry N: 2
